The values that follow come from PMC10830117 (Science Advances, 2024).

This assay deals with T1, Glutathione synthetase (GSS), full-length wild type, recombinant (human, UniProt P48637 1-474).
T1 sequence (looked up): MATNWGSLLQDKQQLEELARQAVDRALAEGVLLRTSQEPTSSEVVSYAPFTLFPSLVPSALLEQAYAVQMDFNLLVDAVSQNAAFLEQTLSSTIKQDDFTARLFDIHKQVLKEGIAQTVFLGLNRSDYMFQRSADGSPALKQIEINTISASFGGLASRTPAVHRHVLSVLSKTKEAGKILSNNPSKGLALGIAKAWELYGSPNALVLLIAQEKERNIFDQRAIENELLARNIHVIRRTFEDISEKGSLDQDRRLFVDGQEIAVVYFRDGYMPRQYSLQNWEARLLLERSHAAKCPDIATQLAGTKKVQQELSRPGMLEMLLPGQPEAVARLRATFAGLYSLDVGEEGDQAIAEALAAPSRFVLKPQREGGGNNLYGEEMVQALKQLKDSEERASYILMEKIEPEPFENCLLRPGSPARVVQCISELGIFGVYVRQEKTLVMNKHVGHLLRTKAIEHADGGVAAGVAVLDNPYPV
As to the kind of experiment: SPR.

B1: Human LMPTP-A (low-molecular weight protein tyrosine phosphatase, isoform A) (enzyme, UniProt P24666 1-158, looked up)
chain: MAEQATKSVLFVCLGNICRSPIAEAVFRKLVTDQNISENWRVDSAATSGYEIGNPPDYRGQSCMKRHGIPMSHVARQITKEDFATFDYILCMDESNLRDLNRKSNQVKTCKAKIELLGSYDPQKQLIIEDPYYGNDSDFETVYQQCVRCCRAFLEKAH
B1: the Kd was found to be 244 ± 2 nM and the “stoichiometry N” value is 1.
